Results: publication PMC8809517, “Cofactor-independent RNA editing by a synthetic S-type PPR protein”
Substitutions are numbered along the chain they refer to.

T1: GFP-9S library array, motif 4 ND N98C;D124V (synthetic construct, N98C;D124V)
T1 chain: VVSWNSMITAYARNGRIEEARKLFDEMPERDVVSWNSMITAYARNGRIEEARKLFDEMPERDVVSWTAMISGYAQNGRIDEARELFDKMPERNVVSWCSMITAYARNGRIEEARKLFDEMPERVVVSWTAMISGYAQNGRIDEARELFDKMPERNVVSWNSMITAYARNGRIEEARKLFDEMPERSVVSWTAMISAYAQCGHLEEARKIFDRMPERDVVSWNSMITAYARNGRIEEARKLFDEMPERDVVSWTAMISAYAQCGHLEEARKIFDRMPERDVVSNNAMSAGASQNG

T2: GFP-9S library array, motif 4 ND N98P;D124I (synthetic construct, N98P;D124I)
T2 chain: T1 chain with C98P, V124I

T3: GFP-9S library array, motif 4 ND N98W;D124R (synthetic construct, N98W;D124R)
T3 chain: T1 chain with C98W, V124R

T4: GFP-9S library array, motif 4 ND N98R;D124S (synthetic construct, N98R;D124S)
T4 chain: T1 chain with C98R, V124S

T5: GFP-9S library array, motif 4 ND N98G;D124N (synthetic construct, N98G;D124N)
T5 chain: T1 chain with C98G, V124N


Experiments:
Experiment in all cases: high-throughput RNA pulldown from lysate on Ni-NTA beads; HRP: 50 mM Tris pH 8, 150 mM NaCl, 1 mM beta-mercaptoethanol, 50 ug/ml BSA, 3 ug/ml yeast RNA, 0.5% heparin; ITC and FP: Tris pH 8, 200 mM KCl, 5% glycerol; MST: 50 mM Tris pH 8, 200 mM NaCl, 1 mM DTT, BSA, heparin, 0.05% Tween 20
Details in all cases: tags: N-terminal His-eGFP
[1] = target: T1, GFP-9S library array, motif 4 ND …
[2] = target: T2, GFP-9S library array, motif 4 ND …
[3] = target: T3, GFP-9S library array, motif 4 ND …
[4] = target: T4, GFP-9S library array, motif 4 ND …
[5] = target: T5, GFP-9S library array, motif 4 ND …

Binder	Kd ([1]; label: 5' IRDye 800CW)	Kd ([2]; label: 5' IRDye 800CW)	Kd ([3]; label: 5' IRDye 800CW)	Kd ([4]; label: 5' IRDye 800CW)	Kd ([5]; label: 5' IRDye 800CW)	Kd ([1]; label: 5' Cy5)	Kd ([2]; label: 5' Cy5)	Kd ([3]; label: 5' Cy5)	Kd ([4]; label: 5' Cy5)	Kd ([5]; label: 5' Cy5)
AUUAAACGUGA (ssRNA) [IR-rpoA-A]	98.1 nM	272 nM	206 nM	184 nM	41.2 nM	–	–	–	–	–
AUUAGACGUGA (ssRNA) [Cy5-rpoA-G]	–	–	–	–	–	124 nM	127 nM	90.3 nM	93.6 nM	276 nM
AUUACACGUGA (ssRNA) [Cy5-rpoA]	–	–	–	–	–	130 nM	109 nM	113 nM	72.7 nM	155 nM
AUUAUACGUGA (ssRNA) [IR-rpoA-U]	167 nM	187 nM	317 nM	88.9 nM	82.7 nM	–	–	–	–	–
